Measured values reported in patent publication US20100138941A1 (IMAGENE, published 2010).

Biological target: T1, AIMP1 protein (SEQ ID NO: 1) consisting of 312 amino acids (Homo sapiens (Human), UniProt Q12904 1-312)
T1 construct: also called purified AIMP1 protein; AIMP1 protein antigen
T1 sequence: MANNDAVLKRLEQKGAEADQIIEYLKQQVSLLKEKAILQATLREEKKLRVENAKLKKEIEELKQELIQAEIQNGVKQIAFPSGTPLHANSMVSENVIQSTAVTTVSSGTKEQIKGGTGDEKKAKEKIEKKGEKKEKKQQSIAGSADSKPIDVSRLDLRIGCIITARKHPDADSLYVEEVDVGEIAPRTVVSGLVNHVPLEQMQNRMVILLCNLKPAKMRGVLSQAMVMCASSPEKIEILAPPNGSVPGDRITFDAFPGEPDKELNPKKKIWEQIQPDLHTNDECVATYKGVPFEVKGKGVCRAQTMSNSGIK
Experiment: purified GST-gp96 fragments incubated with AIMP1, Western blot with anti-AIMP1 antibody
Procedure: The purified GST-gp96 fragments were cultured with AIMP1 and analyzed by Western blot using an anti-AIMP1 antibody, and the analysis results are shown in FIG. 16.

binding result: binds
B1: GST-gp96-(699-799) (other)
chain: RRIKEDEDDKTVLDLAVVLFETATLRSGYLLPDTKAYGDRIERMLRLSLNIDPDAKVEEEPEEEPEETAEDTTEDTEQDEDEEMDVGTDEEEETAKESTAE
notes: GST-tag fusion purified on GSH agarose; also called domain involved in oligomerization; not shown: GST tag encoded by the pGEX4T3 vector (Amersham Biosciences)
